From patent publication US20230192888A1 come the findings set out here.

The target in assay [1] is endogenous MMP-1 in clinical saliva samples (human) (UniProt P03956). As to the kind of experiment: sandwich ELISA; capture MAB901, detection 1-8A12-HRP; saliva sample 4 (MMP-1 6.4 pg/ml). Background: ELISA stands for enzyme-linked immunosorbent assay.
Assay [2] deals with human recombinant MMP-1 (human) (UniProt P03956). The experiment in a line: sandwich ELISA; capture MAB901, detection 1-8A12-HRP; MMP-1 0.625 ng/ml.
Assay [3] shares this target. The experiment in a line: sandwich ELISA; capture MAB901, detection 1-8A12-HRP; MMP-1 10 ng/ml.
The target in assay [4] is endogenous MMP-1 in clinical saliva samples (human) (UniProt P03956). The experiment in a line: sandwich ELISA; capture MAB901, detection 1-8A12-HRP; saliva sample 6 (MMP-1 27.1 pg/ml).
The target is the same in assay [5]. As to the kind of experiment: sandwich ELISA; capture MAB901, detection 1-8A12-HRP; saliva sample 8 (MMP-1 0 pg/ml).
Assay [6] deals with human recombinant MMP-1 (human) (UniProt P03956). The experiment in a line: sandwich ELISA; capture MAB901, detection 1-8A12-HRP; MMP-1 0.313 ng/ml.
Assay [7] has the same target. The experiment in a line: sandwich ELISA; capture MAB901, detection 1-8A12-HRP; MMP-1 0.156 ng/ml.
Assay [8] shares this target. The experiment in a line: sandwich ELISA; capture MAB901, detection 1-8A12-HRP; MMP-1 2.5 ng/ml.
The target in assay [9] is endogenous MMP-1 in clinical saliva samples (human) (UniProt P03956). As to the kind of experiment: sandwich ELISA; capture MAB901, detection 1-8A12-HRP; saliva sample 7 (MMP-1 120.6 pg/ml).
The target is the same in assay [10]. As to the kind of experiment: sandwich ELISA; capture MAB901, detection 1-8A12-HRP; saliva sample 5 (MMP-1 285.6 pg/ml).
The target is the same in assay [11]. The experiment in a line: sandwich ELISA; capture MAB901, detection 1-8A12-HRP; saliva sample 1 (MMP-1 14821.9 pg/ml).
The target is the same in assay [12]. As to the kind of experiment: sandwich ELISA; capture MAB901, detection 1-8A12-HRP; saliva sample 3 (MMP-1 1503.2 pg/ml).
Assay [13] addresses human recombinant MMP-1 (human) (UniProt P03956). The experiment in a line: sandwich ELISA; capture MAB901, detection 1-8A12-HRP; MMP-1 1.25 ng/ml.
For assay [14] the target is unchanged. The experiment in a line: sandwich ELISA; capture MAB901, detection 1-8A12-HRP; MMP-1 5 ng/ml.
The target of assay [15] is endogenous MMP-1 in clinical saliva samples (human) (UniProt P03956). The experiment in a line: sandwich ELISA; capture MAB901, detection 1-8A12-HRP; saliva sample 2 (MMP-1 5041.1 pg/ml).

In the case of MAB901 (antibody), the OD value in assay [1] was -0.019 OD; in assay [2], 0.119 OD; in [3] it was 2.34 OD; in [4] it was 0.003 OD; in [5], -0.01 OD; in assay [6], 0.056 OD. Besides, the OD value in assay [7] was found to be 0.027 OD; in assay [8] it was 0.544 OD; in assay [9], 0.006 OD; in assay [10], 0.045 OD; in assay [11], 2.69 OD; in assay [12], 0.11 OD. Moreover, the OD value in [13] came to 0.258 OD; in [14], 1.19 OD; in assay [15], 0.883 OD.
